The values below come from patent US20220017636A1 (Amgen, published 2022).

Assay in all cases: flow cytometry, peptide-loaded T2 cells;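 further: binding of single-chain Fv antibody constructs, raised in XenoMouse, to peptide-pulsed T2 cells measured by flow cytometry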
(In general: Flow cytometry measures light scatter and fluorescence of single cells or particles in a stream.)

The target in assay [1] is T1, MAGEB2 peptide … (SEQ ID NO: 1) complexed with HLA-A*02:01 on the cell surface (human).
T1 construct: whole, on cells; also called pMAGE-HLA; MAGEB2 pMHC
Experimental: (§1) Binding of pMAGE-HLA scFv constructs, generated from the XenoMouse, on peptide loaded T2 cells was evaluated by flow cytometry.

Assay [2] has as its target T2, STXBP5 peptide complexed with HLA-A*02:01 on T2 cells (human).
T2 construct: whole, on cells
Experimental: as §1

The target of assay [3] is T3, MB peptide complexed with HLA-A*02:01 on T2 cells (human).
T3 construct: whole, on cells
Experimental: as §1

The target in assay [4] is T4, DPYSL4 peptide complexed with HLA-A*02:01 on T2 cells (human).
T4 construct: whole, on cells
Experimental: as §1

The target of assay [5] is T5, SLK peptide complexed with HLA-A*02:01 on T2 cells (human).
T5 construct: whole, on cells
Experimental: as §1

Assay [6] deals with T6, MYOF peptide complexed with HLA-A*02:01 on T2 cells (human).
T6 construct: whole, on cells
Experimental: as §1

Assay [7] has as its target T7, KEA peptide complexed with HLA-A*02:01 on T2 cells (human).
T7 construct: whole, on cells
Experimental: as §1

Assay [8] concerns the target T8, ADF peptide complexed with HLA-A*02:01 on T2 cells (human).
T8 construct: whole, on cells
Experimental: as §1

In assay [9] the target is T9, CNDP2 peptide complexed with HLA-A*02:01 on T2 cells (human).
T9 construct: whole, on cells; also called CNPD2
Experimental: as §1

Assay [10] concerns the target T10, COX14 peptide complexed with HLA-A*02:01 on T2 cells (human).
T10 construct: whole, on cells
Experimental: as §1

B1: 18081-H11 (scFv)
scFv: EVQLLESGPALVKPTQTLTLTCTFSGFSFTTHKMGVDWIRQPPGKALEWLALIYWNDDKRYSPSLQSRLTITKDTSKNQVVLTMTNMDPVDTATYYCAYRRYNWNYENWFDPWGQGTLVTVSSGGGGSGGGGSGGGGSELQMTQSPSSLSASVGDRVTITCQASQDISNYLNWYQQKPGKAPKLLIYAASSLQSGVPSRFSGSGSGTDFTLTISSLQPEDFATYYCQQSYTTPFTFGPGTKVEIK
notes: scFv in bacterial lysate, detected with anti-Flag M2
B1: the Signal/background in assay [1] stood at 32; in assay [2], 0.9; in assay [3], 1; in assay [4], 1; in assay [5], 1.1; in [6] it was 1.1. The Signal/background in assay [7] came to 0.9; in assay [8], 0.9; in assay [9], 0.9; in [10], 1.

B2: 18089-D11 (scFv)
scFv: EVQLLESGPVLVKPTQTLTLTCTFSGFSFTTHKMGVDWIRQPPGKALEWLALIYWNDDKRYNPSLQSRLTITKDTSKNQVVLTMTNMDPVDTATYYCAYRRYNWNYENWFDPWGQGTLVTVSSGGGGSGGGGSGGGGSELVMTQSPSSLSASVGDRVTITCRASQSISNYFNWYQQKPGKAPKLLIYAASSLQSGVPSRFSGSGSGTDFTLTISSLQPEDFATYYCQQSYITPFTFGGGTKLEIK
notes: as for B1
For the molecule B2, the Signal/background was found to be 78 in [1]; 1.1 in assay [2]; 1.2 in assay [3]; 1.1 in [4]; 1.2 in assay [5]; 1.1 in assay [6]. For the same molecule, the Signal/background in assay [7] came out at 1; in [8], 1.1; in [9], 1; in [10] it was 1.1.

B3: 18089-C9 (scFv)
scFv: EVQLLESGPTLVKPTQTLTLTCTFSGFSFTTHKMGVDWIRQPPGKALEWLALIYWNDDKRYSPSLQSRLTITKDTSKNQVVLTMTNMDPVDTATYYCAYRRYNWNYENWFDPWGQGTLVTVSSGGGGSGGGGSGGGGSELQMTQSPSSLSASVGDRVTITCRASQFISSYLNWYQQKPGKAPKLLIYAASSLQSGVPSRFSGRGSGTDFTLTISSLQPEDFATYYCQQSYSTPFTFGPGTKVEIK
notes: as for B1
For B3, the Signal/background came out at 39 in [1]; 1 in [2]; 1.1 in assay [3]; 0.9 in assay [4]; 1.1 in assay [5]; 1 in assay [6]. Further, the Signal/background in assay [7], in assay [8], in assay [9] and in assay [10] was 1 each time.

B4: 18179-C1 (scFv)
scFv: EVQLLESGAEVKKPGASVKVSCKASGYTFTRNGLSWVRQAPGQGLEWMGWISGYNGDTNYAQKLQGRGTMTTDTSTSTAYMELRSLRSDDTAVYYCARGRATFDYWGQGTLVTVSSGGGGSGGGGSGGGGSELVMTQSPSSLSASVGDRVTITCRASQGISNYLAWYQQKPGKVPKLLISAASTLQSGVPSRFSGSGSGTDFTLTISSLQPEDVATYYCQKYNSAPFTFGPGTKVDIK
notes: as for B1
Regarding B4, the Signal/background worked out at 43 in [1]; 0.9 in [2]; 1 in assay [3]; 1 in assay [4]; 1 in assay [5]; 0.9 in assay [6]. The Signal/background in assay [7] came out at 1; in assay [8] it was 1.3; in assay [9], 0.8; in assay [10], 1.

B5: 18081-E7 (scFv)
scFv: EVQLLESGPGLVKPSETLSLTCTVSGDSISSSRYYWGWIRQPPGKGLEWIGSIYYSGSTYYNPSLKSRVTISVDTSKNQFSLKLSSVTAADTAVYYCARGIFGVITYFDYWGQGTLVTVSSGGGGSGGGGSGGGGSELVMTQTPDSLAVSLGERATINCKSSQSVLYSSNNKNYLAWYQQKPGQPPKLLIYWASTRESGVPDRFSGSGSGTDFTLTISSLQAEDVAVYYCQQYYSTPLTFGGGTKVEIK
notes: as for B1
Consider B5, for which the Signal/background in assay [1] is 298; in [2] it was 1.1; in [3], 1; in [4], 1.2; in assay [5], 1.4; in assay [6] it was 1.1. Moreover, the Signal/background in assay [7] was 1; in assay [8], 1; in [9], 1; in assay [10], 1.1.

B6: 18081-B9 (scFv)
scFv: EVQLLESGPGLVKPSETLSLTCTVSGDSISSSRYYWGWIRQPPGKGLEWIGSIYYSGSTYYNPSLKSRVTISVDTSKNQFSLKLSSVTAADTAVYYCARGIFGVITYFDYWGQGTLVTVSSGGGGSGGGGSGGGGSELVMTQSPDSLAVSLGERATINCKSSQSVLYSSNNKNYLAWYQQKPGQPPKLLIYWASTRESGVPDRFSGSGSGTDFTLTISSLQAEDVAVYYCQQFYSTPITFGQGTRLEIK
notes: as for B1
For the molecule B6, the Signal/background in assay [1] is 153; in assay [2], 1; in assay [3] it was 1.1; in [4] it was 1.1; in assay [5], 1.1; in [6], 1.1. In addition, the Signal/background in assay [7] is 1.1; in [8], 1; in assay [9], 1; in [10] it was 1.

B7: 18179-D7 (scFv)
scFv: EVQLLESGGGLVQPGGSLRLSCAASGFTFSNAWMSWVRQAPGKGLEWVGRIKGNTYGGTTDYAAPVKGRFTISRDDSKNTLFLQMNSLKTEDTAVYYCTTPSYSGSYYNYFSVMDVWGQGTTVTVSSGGGGSGGGGSGGGGSELVMTQSPSSLSASVGDRVTITCRTSQSISSYLNWYQQKPGRAPKLLIFAASSLQGGVPSRFSGSGSGTDFTLTISSLQPEDFATYYCQQTYSMPFTFGPGTKVDIK
notes: as for B1
For B7, the Signal/background in assay [1] was found to be 281; in [2] it was 1; in [3] it was 1; in [4], 1.1; in assay [5], 1.1; in assay [6] it was 1. For the same molecule, the Signal/background turned out to be 1 in [7], 1 in [8], 1.1 in [9] and 1 in [10].

B8: 18179-A7 (scFv)
scFv: EVQLLESGGGLVKPGGSLRLSCAASGFTFSNAWMSWVRQAPGKGLEWVGRIKGNTYGGTTDYAAPVKGRFTISRDDSKNTLFLQMNSLKTEDTAVYYCTTPSYSGSYYNYFSVMDVWGQGTTVTVSSGGGGSGGGGSGGGGSELVMTQSPSSLSASVGDRVTITCRTSQSISSYLNWYQQKPGRAPKLLIFAASSLQGGVPSRFSGSGSGTDFTLTISSLQPEDFATYYCQQTYSMPFTFGPGTKVDIK
notes: as for B1
As for B8, the Signal/background in assay [1] was determined as 267; in [2], 1; in assay [3] it was 1.1; in [4] it was 1; in [5] it was 1; in assay [6] it was 1. For the same molecule, the Signal/background in assay [7] worked out at 0.9; in [8], 1; in [9], 1; in assay [10] it was 1.

B9: 18179-D11 (scFv)
scFv: EVQLLESGGGLVKPGGSLRLSCAASGFTFSNAWMSWVRQAPGKGLEWVGRIKGNTYGGTTDYAAPVKGRFTISRDDSKNTLFLQMNSLKTEDTAVYYCTTPSYSGSYYNYFSVMDVWGQGTTVTVSSGGGGSGGGGSGGGGSELQMTQSPSSLSASVGDRVTITCRTSQSISSYLNWYQQKPGRAPKLLIFAASSLQGGVPSRFSGSGSGTDFTLTISSLQPEDFATYYCQQTYSMPFTFGPGTKVDIK
notes: as for B1
For B9, the Signal/background in [1] is 345; in assay [2], 1; in assay [3] it was 1; in [4] it was 1.1; in [5], 1; in [6], 1.1. For the same molecule, the Signal/background in assay [7], in assay [8], in [9] and in assay [10] was 1 in each case.

B10: 18179-B12 (scFv)
scFv: EVQLLESGGGLVQPGGSLRLSCAASGFTFSNAWMSWVRQAPGKGLEWVGRIKGNTYGGTTDYAAPVKGRFTISRDDSKNTLFLQMNSLKTEDTAVYYCTTPSNSGSYYNYFSVMDVWGQGTTVTVSSGGGGSGGGGSGGGGSELVMTQSPSSLSASVGDRVTITCRTSQSISSYLNWFQQKPGKAPKLLIFAASSLQSGVPSRFSGSGSGTDFTLTISSLQPEDFATYYCQQTYSMPFTFGPGTKVEIK
notes: as for B1
B10: the Signal/background in assay [1] was determined as 368; in [2], 1; in assay [3], 1; in assay [4], 1; in assay [5], 1; in assay [6] it was 1. The Signal/background in assay [7], in assay [8], in assay [9] and in assay [10] was 1 throughout.
